# The RNAGym collection of RNA variant scans (doi:10.7554/elife.90254)
# B1: LINE1-mini (parent)
# chain: GGCAGAGCUCAACACAGCGUGGCAAAGUGGCUGUGGCUAGACUGCC
# Variants of: B1
# Assay: self-cleavage, relative activity (ratio to wild type); higher = more cleavage; in vitro, sequencing; the parent is a self-cleaving ribozyme
row,Variant,self-cleavage
1,A12C C37A,0.02
2,A12C C37U,0.02
3,A12C C37G,0.02
4,A12G C45G,0.06
5,A12G C45A,0.1
6,A12G C45U,0.05
7,A12C C46G,0.05
8,A12C C46A,0.02
9,A12C C46U,0.02
10,A12C C42G,0.02
11,A12C C42U,0.01
12,A12C C42A,0.03
13,A12C C31A,0.03
14,A12C C31U,0.02
15,A12C C31G,0.01
16,A12C U20G,0.01
17,A12C U20C,0.01
18,A12C U20A,0.03
19,A12U C23G,0.26
20,A12U C23U,0.34
21,A12U C23A,0.27
22,A12C A26G,0.01
23,A12C A26C,0.02
24,A12C A26U,0.03

row,Variant,self-cleavage
1,A12G A25U,0.03
2,A12G A25G,0.03
3,A12G A25C,0.16
4,A11U G35C,0.01
5,A11U G35A,0.04
6,A11U G35U,0.02
7,A12G G29U,0.02
8,A12G G29A,0.03
9,A12G G29C,0.02
10,A12C G30U,0.01
11,A12C G30C,0.04
12,A12C G30A,0.03
13,A12U A26U,0.28
14,A12U A26C,0.16
15,A12U A26G,0.22
16,A12C C18A,0.03
17,A12C C18G,0.02
18,A12C C18U,0.04
19,A12C G27U,0.02
20,A12C G27C,0.03
21,A12C G27A,0.03
22,A12C C13G,0.04
23,A12C C13A,0.08
24,A12C C13U,0.01

row,Variant,self-cleavage
1,A12C C45A,0.03
2,A12C C45U,0.03
3,A12C C45G,0.07
4,A11U G21U,0.1
5,A11U G21A,0.33
6,A11U G21C,0.12
7,A12C C23U,0.08
8,A12C C23A,0.02
9,A12C C23G,0.02
10,A12G G22C,0.04
11,A12G G22A,0.03
12,A12G G22U,0.02
13,A12C G44U,0.03
14,A12C G44C,0.05
15,A12C G44A,0.03
16,A12C C15U,0.03
17,A12C C15A,0.03
18,A12C C15G,0.03
19,A12C A25G,0.02
20,A12C A25C,0.03
21,A12C A25U,0.01
22,A12C U34C,0.03
23,A12C U34G,0.02
24,A12C U34A,0.02

row,Variant,self-cleavage
1,A12U A24U,0.31
2,A12U A24G,0.39
3,A12U A24C,0.24
4,A11U U38C,0.05
5,A11U U38A,0.07
6,A11U U38G,0.01
7,A12U C45A,0.38
8,A12C G22U,0.02
9,A12C G22A,0.03
10,A12C G22C,0.02
11,A11U G17C,0.12
12,A11U G17U,0.03
13,A11U G17A,0.04
14,A12U C42G,0.04
15,A12U C42U,0.13
16,A12U C42A,0.06
17,A12G C15A,0.02
18,A12G C15U,0.03
19,A12G C15G,0.03
20,A12C U38G,0.03
21,A12C U38C,0.04
22,A12C U38A,0.01
23,A12U A41G,0.09
24,A12U A41C,0.04

row,Variant,self-cleavage
1,A12U A41U,0.18
2,A12G U43C,0.03
3,A12G U43A,0.12
4,A12G U43G,0.1
5,A12C A39C,0.03
6,A12C A39G,0
7,A12C A39U,0.02
8,A12C G33A,0.05
9,A12C G33U,0.02
10,A12C G33C,0.01
11,A12G C46G,0.05
12,A12G C46U,0.03
13,A12G C46A,0.31
14,A12U A25G,0.4
15,A12U A25C,0.22
16,A12U A25U,0.25
17,A11U C37U,0.01
18,A11U C37A,0.02
19,A11U C37G,0.02
20,A12G U20G,0.02
21,A12G U20A,0.04
22,A12G U20C,0.08
23,A12G C31G,0.04
24,A12G C31U,0.05

row,Variant,self-cleavage
1,A12G C31A,0.16
2,A11U A41U,0.27
3,A11U A41C,0.04
4,A11U A41G,0.05
5,A12U A39C,0.11
6,A12U A39G,0.08
7,A12U A39U,0.16
8,A11U U43C,0.04
9,A11U U43A,0.02
10,A11U U43G,0
11,A12C A41G,0.03
12,A12C A41C,0.02
13,A12C A41U,0.03
14,A12U,0.28
15,A12G,0.04
16,A12C,0.03
17,A11U C13U,0.04
18,A11U C13G,0.03
19,A11U C13A,0.02
20,A12C U32C,0.05
21,A12C U32G,0.06
22,A12C U32A,0.03
23,A12G G44A,0.04
24,A12G G44C,0.03

row,Variant,self-cleavage
1,A12G G44U,0.09
2,A11U G29C,0.09
3,A11U G29A,0.14
4,A11U G29U,0.17
5,A11U G40C,0.02
6,A11U G40U,0.04
7,A11U G40A,0.03
8,A12G G40A,0.06
9,A12G G40C,0.1
10,A12G G40U,0.06
11,A12C U28A,0.02
12,A12C U28G,0.02
13,A12C U28C,0.02
14,A12C G35A,0.04
15,A12C G35C,0.03
16,A12C G35U,0.03
17,A12C A14G,0.04
18,A12C A14U,0.05
19,A12C A14C,0.02
20,A11U C15A,0.03
21,A11U C15U,0.17
22,A11U C15G,0.02
23,A11U U20G,0.16
24,A11U U20C,0.07

row,Variant,self-cleavage
1,A11U U20A,0.07
2,A12C G40A,0.04
3,A12C G40C,0.03
4,A12C G40U,0.03
5,A12G C23U,0.03
6,A12G C23A,0.02
7,A12G C23G,0.05
8,A11U U34A,0.04
9,A11U U34G,0.02
10,A11U U34C,0.05
11,A11U C18G,0.04
12,A11U C18A,0.07
13,A11U C18U,0.32
14,A12C G21C,0.03
15,A12C G21A,0.02
16,A12C G21U,0.03
17,A11U G27C,0.14
18,A11U G27U,0.13
19,A11U G27A,0.16
20,A11U C23G,0.11
21,A11U C23A,0.16
22,A11U C23U,0.1
23,A11U C42U,0.02
24,A11U C42A,0.03

row,Variant,self-cleavage
1,A11U C42G,0.02
2,A11U G33C,0.02
3,A11U G33U,0.04
4,A11U G33A,0.03
5,A12C G36U,0.03
6,A12C G36A,0.2
7,A12C G36C,0.02
8,A12G G21U,0.03
9,A12G G21A,0.05
10,A12G G21C,0.01
11,A12U A14C,0.05
12,A12U A14G,0.18
13,A12U A14U,0.18
14,A12G A41U,0.04
15,A12G A41G,0.03
16,A12G A41C,0.02
17,A12U A16G,0.16
18,A12U A16C,0.05
19,A12U A16U,0.07
20,A12G G27A,0.03
21,A12G G27U,0.04
22,A12G G27C,0.03
23,A12G U34C,0.05
24,A12G U34G,0.02

row,Variant,self-cleavage
1,A12G U34A,0.03
2,A12G C13A,0.07
3,A12G C13G,0.04
4,A12G C13U,0.06
5,A12C G17A,0.01
6,A12C G17U,0.02
7,A12C G17C,0.02
8,A11U G19U,0.12
9,A11U G19C,0.1
10,A11U G19A,0.27
11,A12C G19A,0.02
12,A12C G19U,0.03
13,A12C G19C,0.02
14,A12G U32A,0.15
15,A12G U32C,0.14
16,A12G U32G,0.49
17,A12G C42A,0.05
18,A12G C42U,0.07
19,A12G C42G,0.02
20,A12C U43G,0.01
21,A12C U43C,0.01
22,A12C U43A,0.03
23,A11U G44A,0.05
24,A11U G44C,0.03

row,Variant,self-cleavage
1,A11U G44U,0.05
2,A11U U28G,0.12
3,A11U U28A,0.11
4,A11U U28C,0.22
5,A11U C31A,0.04
6,A11U C31G,0.03
7,A11U C31U,0.1
8,A12G G33C,0.03
9,A12G G33A,0.07
10,A12G G33U,0.12
11,A11U U32G,0.03
12,A11U U32A,0.03
13,A11U U32C,0.04
14,A12C A24C,0.01
15,A12C A24U,0.03
16,A12C A24G,0.04
17,A12G A39U,0.08
18,A12G A39C,0.04
19,A12G A39G,0.01
20,A12G A16G,0.03
21,A12G A16U,0.05
22,A12G A16C,0.06
23,A12G U38A,0.06
24,A12G U38G,0.02

row,Variant,self-cleavage
1,A12G U38C,0.04
2,A12G C37A,0.04
3,A12G C37U,0.04
4,A12G C37G,0.02
5,A11U C45G,0.04
6,A11U C45A,0.05
7,A11U C45U,0.23
8,A12U C37G,0.06
9,A12U C37U,0.02
10,A12U C37A,0.05
11,A12G C18G,0.04
12,A12G C18A,0.03
13,A12G C18U,0.04
14,A12G A14U,0.03
15,A12G A14C,0.04
16,A12G A14G,0.04
17,A11U C46U,0.12
18,A11U C46G,0.06
19,A11U C46A,0.09
20,A11U G22C,0.07
21,A11U G22A,0.34
22,A11U G22U,0.15
23,A12U C31U,0.09
24,A12U C31A,0.04

row,Variant,self-cleavage
1,A12U C31G,0.04
2,A12U C15U,0.1
3,A12U C15G,0.06
4,A12U C15A,0.09
5,A12G G19U,0.02
6,A12G G19C,0.02
7,A12G G19A,0.17
8,A11U G36C,0.03
9,A11U G36A,0.02
10,A11U G36U,0.03
11,A12G A26U,0.03
12,A12G A26C,0.03
13,A12G A26G,0.03
14,A12G G17A,0.02
15,A12G G17U,0.05
16,A12G G17C,0.05
17,A12G G36A,0.06
18,A12G G36C,0.04
19,A12G G36U,0.03
20,A12G G30U,0.04
21,A12G G30A,0.03
22,A12G G30C,0.08
23,A11U G30A,0.17
24,A11U G30U,0.18

row,Variant,self-cleavage
1,A11U G30C,0.13
2,A12G A24U,0.03
3,A12G A24C,0.02
4,A12G A24G,0.03
5,A12C A16G,0.02
6,A12C A16C,0.03
7,A12C A16U,0.01
8,A12U C13A,0.21
9,A12U C13G,0.48
10,A12U C13U,0.14
11,A12G G35A,0.02
12,A12G G35U,0.04
13,A12G G35C,0.05
14,A12U C18A,0.18
15,A12U C18G,0.17
16,A12U C18U,0.53
17,A12C G29A,0.01
18,A12C G29U,0.02
19,A12C G29C,0.01
20,A12G U28A,0.04
21,A12G U28G,0.01
22,A12G U28C,0.02
